For this experiment, the target named is actin filament, unlabelled segment of recombinant cytoplasmic β-actin (UniProt P60709). Put plainly: TIRF microscopy of single actin filaments under flow in a microfluidic chamber.

In the case of sfGFP-Tpm1.7 (natural protein), the cluster detachment, fold slower than sfGFP-Tpm1.6 came to 5.5 fold.
As for sfGFP-Tpm1.6 (natural protein), the cluster detachment, fold faster at 50 mM KCl than at 100 mM KCl came out at 36 fold and the fold decrease of the median detachment time from 0.01 to 0.04 pN per Tpm dimer was greater than 100 fold.

For the origin of these results see publication doi:10.1101/2025.05.14.653996.
